Test results: the supplement of paper PMC7125110
± gives the standard error. For some assays here: Variants at the floor of the assay were thinned out.

B1: glmS ribozyme (parent)
chain: AUAAAAGCGCCAGAACUACAGAAAUGUAGUUGACGAGGAGGAGGUUUAUCGAAUUUUCGGCGGAUGCCUCCAAA

Tests used:
Settings in all cases: with glucosamine-6-phosphate
glucosamine-6-phosphate [1] = variants of: B1; assay: kcat; higher = faster cleavage; RNA array
Summary of the method: (§1)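 Glucosamine-6-phosphate (40 μM to 10 mM) in HEPES/KCl/Mg(OAc)2 buffer was flowed over sequenced MiSeq chips, and tiles were imaged over ~14 h. Barcoded ribozyme variants there had been transcribed in situ by E. coli RNA polymerase and were tracked through a hybridised Cy3 probe at 37 °C. One- or two-exponential decay fits to per-tile medians, normalised to baseline and to non-cleaving reference variants, gave kobs. kcat and KM came from weighted Michaelis–Menten fits across concentrations.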

glucosamine-6-phosphate [2] = variants of: B1; assay: KM; higher = weaker cofactor use; RNA array
Summary of the method: as §1

glucosamine-6-phosphate [3] = variants of: B1; assay: self-cleavage kobs at 40 uM GlcN6P; higher = faster cleavage; RNA array
Summary of the method: as §1

glucosamine-6-phosphate [4] = variants of: B1; assay: self-cleavage kobs at 160 uM GlcN6P; higher = faster cleavage; RNA array
Summary of the method: as §1

glucosamine-6-phosphate [5] = variants of: B1; assay: self-cleavage kobs at 640 uM GlcN6P; higher = faster cleavage; RNA array
Summary of the method: as §1

glucosamine-6-phosphate [6] = variants of: B1; assay: self-cleavage kobs at 2500 uM GlcN6P; higher = faster cleavage; RNA array
Summary of the method: as §1

glucosamine-6-phosphate [7] = variants of: B1; assay: self-cleavage kobs at 10000 uM GlcN6P; higher = faster cleavage; RNA array
Summary of the method: as §1

Variant	kcat (glucosamine-6-phosphate [1]) [s⁻¹]	KM (glucosamine-6-phosphate [2]) [µM]	self-cleavage kobs at 40 uM GlcN6P (glucosamine-6-phosphate [3]) [s⁻¹]	self-cleavage kobs at 160 uM GlcN6P (glucosamine-6-phosphate [4]) [s⁻¹]	self-cleavage kobs at 640 uM GlcN6P (glucosamine-6-phosphate [5]) [s⁻¹]	self-cleavage kobs at 2500 uM GlcN6P (glucosamine-6-phosphate [6]) [s⁻¹]	self-cleavage kobs at 10000 uM GlcN6P (glucosamine-6-phosphate [7]) [s⁻¹]
AUAAAAGCGCCAGAACUACAGAAAUGUAGUUGACGAGGAGGAGGUUUAUCGAAGUUUCGGCGGAUACCUCCAAA	0.0134 ± 0.0022	1380 ± 320	0.000427 ± 4.8e-05	0.00123 ± 0.00022	0.00385 ± 0.00097	0.00659 ± 0.0015	0.0132 ± 0.0016
AUAAAAGCGCCAGAACUACAGAAAUGUAGUUGACGAGGAGGAGGUUUAUCGAACCUUCGGCGGAUGCCUCCAAA	0.014 ± 0.0045	2720 ± 1100	0.000294 ± 4.1e-05	0.000636 ± 8.9e-05	0.00279 ± 0.00037	0.00663 ± 0.0011	0.0111 ± 0.0019
AUAAAAGCGCCAGAACUACAGAAAUGUAGUUGACGAGGAGGAGGUUUAUCGAAAUUUCGGCGGAGGCCUCCAAA	0.00357 ± 0.0014	–	5.78e-05 ± 9.8e-06	0.000211 ± 3.9e-05	0.000927 ± 0.00015	0.001 ± 0.00025	0.00358 ± 0.00043
AUAAAAGCGCCAGAACUACAGAAAUGUAGUUGACGAGGAGGAGGUUUAUCGAACUUUCGGCGGUUGCCUCCAAA	7.19e-05 ± 1e-05	–	–	–	–	5.96e-05 ± 1.3e-05	6.16e-05 ± 1.3e-05
AUAAAAGCGCCAGAACUACAGAAAUGUAGUUGACGAGGAGGAGGUUUAUCGAACUUUCGGCGUAUGCCUCCAAA	< 1e-05	–	–	–	< 1e-05	–	–
AUAAAAGCGCCAGAACUACAGAAAUGUAGUUGACGAGGAGGAGGUUUAUCGAACUUUCGGCGGAUGCCUCAAAA	0.00379 ± 0.00088	1580 ± 530	0.000112 ± 1.4e-05	0.000296 ± 4.1e-05	0.00133 ± 0.00019	0.00192 ± 0.00026	0.0039 ± 0.00049
AUAAAAGCGCCAGAACUACAGAAAUGUAGUUGACGAGGAGGAGGUUUAUCGAAUAUUCGGUGGAUGCCUCCAAA	1.43e-05 ± 1.1e-06	1930 ± 520	–	–	–	–	–
AUAAAAGCGCCAGAACUACAGAAAUGUAGUUGACGAGGAGGAGGUUUAUCGAAGUUUCGGCGGAUGCUUACAAA	6.79e-05 ± 7.7e-06	–	–	–	–	–	6.28e-05 ± 1.4e-05
AUAAAAGCGCCAGAACUACAGAAAUGUAGUUGACGAGGAGGAGGUUUAUCGAACUUUCGGCGGAUGCAUCCAAA	2.49e-05 ± 6.3e-06	–	< 1e-05	–	–	–	–
